Data published in patent publication US20110166062A1 (INDIANA UNIVERSITY RESEARCH AND TECHNOLOGY, published 2011).
Like-named read-outs stand apart in the source and are kept apart here. Bridges are numbered along the chain shown (N, C = ends). Where no end group is shown, it is not given here. [ ]: non-standard residue; d: D form. The star is where a group is joined. Stearoyl = CCCCCCCCCCCCCCCCCC(=O)*; Palmitoyl = CCCCCCCCCCCCCCCC(=O)*; Myristoyl = CCCCCCCCCCCCCC(=O)*; Aib = CC(C)(N)C(=O)O

How the values were obtained:
Experiment in all cases: cell-based or functional assay
GIP receptor [1] = biological target: T1, GIP receptor (UniProt P48546 22-466)
T1 sequence (looked up): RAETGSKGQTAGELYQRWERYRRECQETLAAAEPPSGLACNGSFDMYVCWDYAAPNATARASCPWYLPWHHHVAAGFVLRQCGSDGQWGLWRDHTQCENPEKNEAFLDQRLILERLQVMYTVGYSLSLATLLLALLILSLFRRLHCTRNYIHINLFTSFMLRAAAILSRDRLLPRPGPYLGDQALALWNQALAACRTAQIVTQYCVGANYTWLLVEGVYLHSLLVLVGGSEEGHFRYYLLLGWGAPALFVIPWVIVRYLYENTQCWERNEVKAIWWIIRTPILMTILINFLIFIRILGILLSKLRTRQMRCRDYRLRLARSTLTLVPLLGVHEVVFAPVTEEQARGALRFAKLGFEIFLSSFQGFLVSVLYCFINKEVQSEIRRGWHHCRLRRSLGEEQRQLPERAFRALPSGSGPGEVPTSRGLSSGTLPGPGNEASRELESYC

GLP-1 receptor = GLP-1 receptor (UniProt P43220 24-463, limits assumed)
GIP receptor [2] = biological target: T2, GIP receptor (UniProt P48546 22-466); remark: listed apart in the source
T2 sequence (looked up): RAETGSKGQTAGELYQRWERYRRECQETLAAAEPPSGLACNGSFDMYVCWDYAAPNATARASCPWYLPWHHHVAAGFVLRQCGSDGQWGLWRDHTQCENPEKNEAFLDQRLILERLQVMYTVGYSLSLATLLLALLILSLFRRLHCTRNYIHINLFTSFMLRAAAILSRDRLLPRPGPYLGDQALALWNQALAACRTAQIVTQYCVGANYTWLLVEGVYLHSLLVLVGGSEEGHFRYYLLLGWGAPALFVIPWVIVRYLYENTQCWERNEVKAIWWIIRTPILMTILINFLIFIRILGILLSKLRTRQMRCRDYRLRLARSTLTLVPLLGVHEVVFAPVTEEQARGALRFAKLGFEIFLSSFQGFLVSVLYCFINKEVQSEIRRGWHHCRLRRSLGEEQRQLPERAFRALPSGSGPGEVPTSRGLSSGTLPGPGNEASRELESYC

glucagon receptor = glucagon receptor (UniProt P47871 26-477, limits assumed)
glucagon receptor, sequence (P47871 26-477 limits assumed): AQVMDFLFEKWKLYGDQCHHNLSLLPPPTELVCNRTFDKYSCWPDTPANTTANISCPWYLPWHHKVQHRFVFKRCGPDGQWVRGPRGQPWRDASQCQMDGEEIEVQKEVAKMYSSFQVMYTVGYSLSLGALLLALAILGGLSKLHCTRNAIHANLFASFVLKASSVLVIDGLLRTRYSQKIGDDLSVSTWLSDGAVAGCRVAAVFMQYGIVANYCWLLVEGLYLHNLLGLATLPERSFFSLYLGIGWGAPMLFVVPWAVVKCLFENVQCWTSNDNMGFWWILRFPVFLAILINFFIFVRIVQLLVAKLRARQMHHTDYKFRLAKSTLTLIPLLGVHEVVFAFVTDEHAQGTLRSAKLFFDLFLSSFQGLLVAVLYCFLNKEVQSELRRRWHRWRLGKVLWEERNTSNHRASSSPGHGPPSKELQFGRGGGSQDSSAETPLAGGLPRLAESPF

B1: mt-285 (peptide)
peptide: Y[Aib]EGTFTSDKSIYLDKQAA[Aib]EFVNWLLAG-NH2
modifications: N-terminus assumed
SMILES: CC[C@H](C)[C@H](NC(=O)[C@H](CO)NC(=O)[C@H](CCCCN)NC(=O)[C@H](CC(=O)O)NC(=O)[C@H](CO)NC(=O)[C@@H](NC(=O)[C@H](Cc1ccccc1)NC(=O)[C@@H](NC(=O)CNC(=O)[C@H](CCC(=O)O)NC(=O)C(C)(C)NC(=O)[C@@H](N)Cc1ccc(O)cc1)[C@@H](C)O)[C@@H](C)O)C(=O)N[C@@H](Cc1ccc(O)cc1)C(=O)N[C@@H](CC(C)C)C(=O)N[C@@H](CC(=O)O)C(=O)N[C@@H](CCCCN)C(=O)N[C@@H](CCC(N)=O)C(=O)N[C@@H](C)C(=O)N[C@@H](C)C(=O)NC(C)(C)C(=O)N[C@@H](CCC(=O)O)C(=O)N[C@@H](Cc1ccccc1)C(=O)N[C@H](C(=O)N[C@@H](CC(N)=O)C(=O)N[C@@H](Cc1c[nH]c2ccccc12)C(=O)N[C@@H](CC(C)C)C(=O)N[C@@H](CC(C)C)C(=O)N[C@@H](C)C(=O)NCC(N)=O)C(C)C
B1 was tested, and the “EC50” value (GIP receptor [1]) was 0.028 nM.

B2: mt-280 (peptide)
peptide: Y[Aib]QGTFTSDYSIYLDKQAA[Aib]EFVNWLLAGGPSSGAPPPSK-NH2
modifications: N-terminus assumed
SMILES: CC[C@H](C)[C@H](NC(=O)[C@H](CO)NC(=O)[C@H](Cc1ccc(O)cc1)NC(=O)[C@H](CC(=O)O)NC(=O)[C@H](CO)NC(=O)[C@@H](NC(=O)[C@H](Cc1ccccc1)NC(=O)[C@@H](NC(=O)CNC(=O)[C@H](CCC(N)=O)NC(=O)C(C)(C)NC(=O)[C@@H](N)Cc1ccc(O)cc1)[C@@H](C)O)[C@@H](C)O)C(=O)N[C@@H](Cc1ccc(O)cc1)C(=O)N[C@@H](CC(C)C)C(=O)N[C@@H](CC(=O)O)C(=O)N[C@@H](CCCCN)C(=O)N[C@@H](CCC(N)=O)C(=O)N[C@@H](C)C(=O)N[C@@H](C)C(=O)NC(C)(C)C(=O)N[C@@H](CCC(=O)O)C(=O)N[C@@H](Cc1ccccc1)C(=O)N[C@H](C(=O)N[C@@H](CC(N)=O)C(=O)N[C@@H](Cc1c[nH]c2ccccc12)C(=O)N[C@@H](CC(C)C)C(=O)N[C@@H](CC(C)C)C(=O)N[C@@H](C)C(=O)NCC(=O)NCC(=O)N1CCC[C@H]1C(=O)N[C@@H](CO)C(=O)N[C@@H](CO)C(=O)NCC(=O)N[C@@H](C)C(=O)N1CCC[C@H]1C(=O)N1CCC[C@H]1C(=O)N1CCC[C@H]1C(=O)N[C@@H](CO)C(=O)N[C@@H](CCCCN)C(N)=O)C(C)C
With B2 the “EC50” value (GIP receptor [1]) was 0.0149 nM.

B3: mt-168 (peptide)
peptide: YSQGTFTSDYSIYLDEQKAKEFVNWLLAGGPSSGAPPPS-NH2
modifications: lactam 18-21; N-terminus assumed
SMILES: CC[C@H](C)[C@H](NC(=O)[C@H](CO)NC(=O)[C@H](Cc1ccc(O)cc1)NC(=O)[C@H](CC(=O)O)NC(=O)[C@H](CO)NC(=O)[C@@H](NC(=O)[C@H](Cc1ccccc1)NC(=O)[C@@H](NC(=O)CNC(=O)[C@H](CCC(N)=O)NC(=O)[C@H](CO)NC(=O)[C@@H](N)Cc1ccc(O)cc1)[C@@H](C)O)[C@@H](C)O)C(=O)N[C@@H](Cc1ccc(O)cc1)C(=O)N[C@@H](CC(C)C)C(=O)N[C@@H](CC(=O)O)C(=O)N[C@@H](CCC(=O)O)C(=O)N[C@@H](CCC(N)=O)C(=O)N[C@H]1CCCCNC(=O)CC[C@@H](C(=O)N[C@@H](Cc2ccccc2)C(=O)N[C@H](C(=O)N[C@@H](CC(N)=O)C(=O)N[C@@H](Cc2c[nH]c3ccccc23)C(=O)N[C@@H](CC(C)C)C(=O)N[C@@H](CC(C)C)C(=O)N[C@@H](C)C(=O)NCC(=O)NCC(=O)N2CCC[C@H]2C(=O)N[C@@H](CO)C(=O)N[C@@H](CO)C(=O)NCC(=O)N[C@@H](C)C(=O)N2CCC[C@H]2C(=O)N2CCC[C@H]2C(=O)N2CCC[C@H]2C(=O)N[C@@H](CO)C(N)=O)C(C)C)NC(=O)[C@H](CCCCN)NC(=O)[C@H](C)NC1=O
With B3 the “EC50” value (GLP-1 receptor) was 1.72 nM, the relative activity (GLP-1 receptor) was 1.45% and the “EC50” value (GIP receptor [2]) was 6.24 nM. For the same binder, the relative activity (GIP receptor [2]) was 0.32%, the “EC50” value (glucagon receptor) was 2.61 nM and the relative activity (glucagon receptor) was 4.79%.

B4: mt-169 (peptide)
peptide: Y[Aib]QGTFTSDYSIYLDEQAAKEFVCWLLAG-NH2
modifications: lactam 16-20; N-terminus assumed
SMILES: CC[C@H](C)[C@H](NC(=O)[C@H](CO)NC(=O)[C@H](Cc1ccc(O)cc1)NC(=O)[C@H](CC(=O)O)NC(=O)[C@H](CO)NC(=O)[C@@H](NC(=O)[C@H](Cc1ccccc1)NC(=O)[C@@H](NC(=O)CNC(=O)[C@H](CCC(N)=O)NC(=O)C(C)(C)NC(=O)[C@@H](N)Cc1ccc(O)cc1)[C@@H](C)O)[C@@H](C)O)C(=O)N[C@@H](Cc1ccc(O)cc1)C(=O)N[C@@H](CC(C)C)C(=O)N[C@@H](CC(=O)O)C(=O)N[C@H]1CCC(=O)NCCCC[C@@H](C(=O)N[C@@H](CCC(=O)O)C(=O)N[C@@H](Cc2ccccc2)C(=O)N[C@H](C(=O)N[C@@H](CS)C(=O)N[C@@H](Cc2c[nH]c3ccccc23)C(=O)N[C@@H](CC(C)C)C(=O)N[C@@H](CC(C)C)C(=O)N[C@@H](C)C(=O)NCC(N)=O)C(C)C)NC(=O)[C@H](C)NC(=O)[C@H](C)NC(=O)[C@H](CCC(N)=O)NC1=O
B4 was tested, and the “EC50” value (GLP-1 receptor) was 0.057 nM, the relative activity (GLP-1 receptor) was 54.4% and the “EC50” value (GIP receptor [2]) was 0.142 nM. The relative activity (GIP receptor [2]) was 14.8%, the “EC50” value (glucagon receptor) was 0.199 nM and the relative activity (glucagon receptor) was 51.3%.

B5: mt-282 (peptide)
peptide: Y[Aib]EGTFTSDK(Myristoyl)SIYLDKQAA[Aib]EFVNWLLAG-NH2
modifications: N-terminus assumed
SMILES: CCCCCCCCCCCCCC(=O)NCCCC[C@H](NC(=O)[C@H](CC(=O)O)NC(=O)[C@H](CO)NC(=O)[C@@H](NC(=O)[C@H](Cc1ccccc1)NC(=O)[C@@H](NC(=O)CNC(=O)[C@H](CCC(=O)O)NC(=O)C(C)(C)NC(=O)[C@@H](N)Cc1ccc(O)cc1)[C@@H](C)O)[C@@H](C)O)C(=O)N[C@@H](CO)C(=O)N[C@H](C(=O)N[C@@H](Cc1ccc(O)cc1)C(=O)N[C@@H](CC(C)C)C(=O)N[C@@H](CC(=O)O)C(=O)N[C@@H](CCCCN)C(=O)N[C@@H](CCC(N)=O)C(=O)N[C@@H](C)C(=O)N[C@@H](C)C(=O)NC(C)(C)C(=O)N[C@@H](CCC(=O)O)C(=O)N[C@@H](Cc1ccccc1)C(=O)N[C@H](C(=O)N[C@@H](CC(N)=O)C(=O)N[C@@H](Cc1c[nH]c2ccccc12)C(=O)N[C@@H](CC(C)C)C(=O)N[C@@H](CC(C)C)C(=O)N[C@@H](C)C(=O)NCC(N)=O)C(C)C)[C@@H](C)CC
With B5 the “EC50” value (GIP receptor [1]) was 0.0133 nM.

B6: mt-283 (peptide)
peptide: Y[Aib]EGTFTSDK(Palmitoyl)SIYLDKQAA[Aib]EFVNWLLAG-NH2
modifications: N-terminus assumed
SMILES: CCCCCCCCCCCCCCCC(=O)NCCCC[C@H](NC(=O)[C@H](CC(=O)O)NC(=O)[C@H](CO)NC(=O)[C@@H](NC(=O)[C@H](Cc1ccccc1)NC(=O)[C@@H](NC(=O)CNC(=O)[C@H](CCC(=O)O)NC(=O)C(C)(C)NC(=O)[C@@H](N)Cc1ccc(O)cc1)[C@@H](C)O)[C@@H](C)O)C(=O)N[C@@H](CO)C(=O)N[C@H](C(=O)N[C@@H](Cc1ccc(O)cc1)C(=O)N[C@@H](CC(C)C)C(=O)N[C@@H](CC(=O)O)C(=O)N[C@@H](CCCCN)C(=O)N[C@@H](CCC(N)=O)C(=O)N[C@@H](C)C(=O)N[C@@H](C)C(=O)NC(C)(C)C(=O)N[C@@H](CCC(=O)O)C(=O)N[C@@H](Cc1ccccc1)C(=O)N[C@H](C(=O)N[C@@H](CC(N)=O)C(=O)N[C@@H](Cc1c[nH]c2ccccc12)C(=O)N[C@@H](CC(C)C)C(=O)N[C@@H](CC(C)C)C(=O)N[C@@H](C)C(=O)NCC(N)=O)C(C)C)[C@@H](C)CC
For B6, the “EC50” value (GIP receptor [1]) was 0.0122 nM.

B7: mt-284 (peptide)
peptide: Y[Aib]EGTFTSDK(Stearoyl)SIYLDKQAA[Aib]EFVNWLLAG-NH2
modifications: N-terminus assumed
SMILES: CCCCCCCCCCCCCCCCCC(=O)NCCCC[C@H](NC(=O)[C@H](CC(=O)O)NC(=O)[C@H](CO)NC(=O)[C@@H](NC(=O)[C@H](Cc1ccccc1)NC(=O)[C@@H](NC(=O)CNC(=O)[C@H](CCC(=O)O)NC(=O)C(C)(C)NC(=O)[C@@H](N)Cc1ccc(O)cc1)[C@@H](C)O)[C@@H](C)O)C(=O)N[C@@H](CO)C(=O)N[C@H](C(=O)N[C@@H](Cc1ccc(O)cc1)C(=O)N[C@@H](CC(C)C)C(=O)N[C@@H](CC(=O)O)C(=O)N[C@@H](CCCCN)C(=O)N[C@@H](CCC(N)=O)C(=O)N[C@@H](C)C(=O)N[C@@H](C)C(=O)NC(C)(C)C(=O)N[C@@H](CCC(=O)O)C(=O)N[C@@H](Cc1ccccc1)C(=O)N[C@H](C(=O)N[C@@H](CC(N)=O)C(=O)N[C@@H](Cc1c[nH]c2ccccc12)C(=O)N[C@@H](CC(C)C)C(=O)N[C@@H](CC(C)C)C(=O)N[C@@H](C)C(=O)NCC(N)=O)C(C)C)[C@@H](C)CC
B7 was tested, and the “EC50” value (GIP receptor [1]) was 0.0186 nM.
